Experimental data published in publication PMC8112011, “Adaptive laboratory evolution accelerated glutarate production by Corynebacterium glutamicum” (Microbial Cell Factories, 2021).

Substrate: NC(=O)CC[C@H](N)C(=O)O
Test: cells, lysate or membranes
Type: biochemical, Corynebacterium glutamicum
Settings: 1.5 mM NADPH, 35 mM 2-oxoglutarate, 100 mM phosphate pH 7.0, 30 °C

B1: GltBD (GOGAT, L-glutamic acid-2-oxoglutarate aminotransferase) (Corynebacterium glutamicum ATCC 13032) (protein)
chain: CGVAFIADIHGRPSRSIVDRALEALRNIDHRGAAGAEKNTGDGAGILMQIPDGFYREVSGIELPEAGEYATGIAFLPRGRMAMMDAQKEIERIAKQEGADVLGWRMVPFDSRDLGSMAEEAMPSFAQIFLTVPGKSGEDLDRVMFFIRKRCERELGTTNGRDTVYFPSLSSRTIIYKGMLTTLQLEGFFEDLGDARLESAIAIVHSRFSTNTFPSWPLAHPYRFVAHNGEINTVRGNENWMRAREALIKNDKLGNLSSVLPICTPEGSDTARFDEALELLHLGGYSLPHAVAMMIPQAWEHNKTLSPELRDFYEYHSCLMEPWDGPAALAFTDGRFVGAVLDRNGLRPGRITITDSGLVVMASESGVLDLREESVVKRTRVQPGRMFLVDTAEGRIVEDEEIKQKLSEAQPYGEWIRDNFVHLDRLPQTRYNYMAHSRAVLRQRVFGITEEDVDLLLLPMARQGAEAIGSMGSDTPIAALSQRPRMLYDFFAQRFAQVTNPPLDSIREKPVTSMFTLLGAQSDVLNPGPDAARRIRLESPIIDNHELATLINANAHGEWDSFGAAVISGLYPVAHHGAGMKAAIARVRREVSEAIRNGKTLIVLSDRESDERMAPIPALLLTSAVHQYLVQQRTRTQCSLVVESGDAREVHHLAMLIGFGADAINPYMAFETIDELRMKGQLGDLSLDEASRNYIKAATTGVLKVMSKMGIATVSSYRGAQLADVTGLHQDLLDNYFGGIASPISGIGLDEVAADVEARHRSAFLPRPEEHAHRELDLGGEYKWRREGEYHLFNPETIFKLQHATRSGSYEIFKDYTRKVDDQSTRLGTIRGLFEFSTDRKPISVSEVEPVSEIVKRFSTGAMSYGSISAEAHEVLAIAMNRLGGMSNSGEGGEDARRFDVEPNGDWKRSAIKQVASGRFGVTSHYLNNCTDIQIKMAQGAKPGEGGQLPPNKVYPWVAEVRITTPGVGLISPPPHHDIYSIEDLAQLIHDLKNANPRARIHVKLVAEQGVGTVAAGVSKAHADVVLISGHDGGTGASPLTSLKHAGGPWELGLAETQQTLLLNGLRDRIRVQCDGQLKTGRDVVIAALLGAEEFGFATAPLVVEGCIMMRVCHLDTCPVGIATQNPDLRSKFTGKAEHVVNFFTFIAQEVREYLAQLGFRSIDEAVGQAQVLRKRSGIPADSRAAHLDLSPIFHRPETPHFPTQDVRCTKTQEHSLEKALDNAFIDKASDTITRAAAGVETSIVIDSSISNVNRSVGTMLGSAVSRVAGAQGLPDGTITLNLQGCAGNSFGAFIPRGITINLTGDANDFVGKGLSGGKIVIKPSAQAPKQLKNNPNIIAGNVLGYGATSGELFIRGQVGERFCVRNSGATAVVEGIGNHGCEYMTGGRVLVLGPVGENFGAGMSGGIAYLANSPDLNQKINGELVDVVPLSADDLTWADELIARHRELTGSETKLRAQDLVKIMPRDFQKVLNIIETAHAEGQDPAIKIMEAVS
notes: full-length gltBD on plasmid pEKEx3, overexpressed in C. glutamicum GRLys1ΔgltB (chromosomal gltB deleted); untagged; crude extract; with Glutamate synthase [NADPH] small chain
  Km: 250 ± 30 µM

B2: GltBD (GOGAT, L-glutamic acid-2-oxoglutarate aminotransferase) (Corynebacterium glutamicum ATCC 13032; E686Q) (protein)
chain: CGVAFIADIHGRPSRSIVDRALEALRNIDHRGAAGAEKNTGDGAGILMQIPDGFYREVSGIELPEAGEYATGIAFLPRGRMAMMDAQKEIERIAKQEGADVLGWRMVPFDSRDLGSMAEEAMPSFAQIFLTVPGKSGEDLDRVMFFIRKRCERELGTTNGRDTVYFPSLSSRTIIYKGMLTTLQLEGFFEDLGDARLESAIAIVHSRFSTNTFPSWPLAHPYRFVAHNGEINTVRGNENWMRAREALIKNDKLGNLSSVLPICTPEGSDTARFDEALELLHLGGYSLPHAVAMMIPQAWEHNKTLSPELRDFYEYHSCLMEPWDGPAALAFTDGRFVGAVLDRNGLRPGRITITDSGLVVMASESGVLDLREESVVKRTRVQPGRMFLVDTAEGRIVEDEEIKQKLSEAQPYGEWIRDNFVHLDRLPQTRYNYMAHSRAVLRQRVFGITEEDVDLLLLPMARQGAEAIGSMGSDTPIAALSQRPRMLYDFFAQRFAQVTNPPLDSIREKPVTSMFTLLGAQSDVLNPGPDAARRIRLESPIIDNHELATLINANAHGEWDSFGAAVISGLYPVAHHGAGMKAAIARVRREVSEAIRNGKTLIVLSDRESDERMAPIPALLLTSAVHQYLVQQRTRTQCSLVVESGDAREVHHLAMLIGFGADAINPYMAFQTIDELRMKGQLGDLSLDEASRNYIKAATTGVLKVMSKMGIATVSSYRGAQLADVTGLHQDLLDNYFGGIASPISGIGLDEVAADVEARHRSAFLPRPEEHAHRELDLGGEYKWRREGEYHLFNPETIFKLQHATRSGSYEIFKDYTRKVDDQSTRLGTIRGLFEFSTDRKPISVSEVEPVSEIVKRFSTGAMSYGSISAEAHEVLAIAMNRLGGMSNSGEGGEDARRFDVEPNGDWKRSAIKQVASGRFGVTSHYLNNCTDIQIKMAQGAKPGEGGQLPPNKVYPWVAEVRITTPGVGLISPPPHHDIYSIEDLAQLIHDLKNANPRARIHVKLVAEQGVGTVAAGVSKAHADVVLISGHDGGTGASPLTSLKHAGGPWELGLAETQQTLLLNGLRDRIRVQCDGQLKTGRDVVIAALLGAEEFGFATAPLVVEGCIMMRVCHLDTCPVGIATQNPDLRSKFTGKAEHVVNFFTFIAQEVREYLAQLGFRSIDEAVGQAQVLRKRSGIPADSRAAHLDLSPIFHRPETPHFPTQDVRCTKTQEHSLEKALDNAFIDKASDTITRAAAGVETSIVIDSSISNVNRSVGTMLGSAVSRVAGAQGLPDGTITLNLQGCAGNSFGAFIPRGITINLTGDANDFVGKGLSGGKIVIKPSAQAPKQLKNNPNIIAGNVLGYGATSGELFIRGQVGERFCVRNSGATAVVEGIGNHGCEYMTGGRVLVLGPVGENFGAGMSGGIAYLANSPDLNQKINGELVDVVPLSADDLTWADELIARHRELTGSETKLRAQDLVKIMPRDFQKVLNIIETAHAEGQDPAIKIMEAVS
notes: as for B1
  Km: 520 ± 40 µM
